Laboratory results as given in publication PMC7275041, “m5C modification of mRNA serves a DNA damage code to promote homologous recombination”.

Molecular target: T1, RAD52 (hRAD52) (human, UniProt P43351 1-418)
T1 sequence: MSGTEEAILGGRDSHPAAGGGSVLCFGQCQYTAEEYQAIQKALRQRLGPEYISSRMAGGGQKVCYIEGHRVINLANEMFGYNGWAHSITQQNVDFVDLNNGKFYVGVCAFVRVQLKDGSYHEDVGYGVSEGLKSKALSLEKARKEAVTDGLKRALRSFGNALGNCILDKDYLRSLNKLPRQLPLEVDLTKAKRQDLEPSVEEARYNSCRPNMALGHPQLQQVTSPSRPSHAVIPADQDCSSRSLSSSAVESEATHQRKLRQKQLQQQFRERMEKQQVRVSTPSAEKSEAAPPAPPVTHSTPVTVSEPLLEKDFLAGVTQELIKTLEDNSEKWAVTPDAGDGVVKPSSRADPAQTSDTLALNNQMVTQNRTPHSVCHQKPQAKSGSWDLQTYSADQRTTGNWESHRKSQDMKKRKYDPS
Test: EMSA; higher efficiency than unmodified N1; 1 mM Mg2+; source data at top RAD52 level (360, unit not shown): 97.3 and 99.2; EMSA: 25 mM Tris-HCl pH 7.5, 1 mM MgCl2, 1 mM DTT, 50 ug/mL BSA, 50 or 300 mM NaCl and/or 0.5% NP-40, 15 min 37 C, 6% PAGE-TBE at 4 C; pull-down: Pierce magnetic RNA-protein pull-down kit
Settings: protein: recombinant; tags: C-terminal 6xHis (pET28b); label: 5' maleimide-IR800 on oligo 1 (DNA); blunt

B1: 50-bp m5C DNA:RNA hybrid (oligo 1/oligo 3) (DNA:RNA)
DNA: ATCATCACCATAACGTCGATGTATCAACTTCGATTAGTCACACCAATTAA
RNA: UUAAUUGGUGUGACUAAUCGAAGUUGAUACAUCGACGUUAUGGUGAUGAU
modifications: m5C at every C of the RNA strand (positions 14, 19, 30, 33, 36; five m5C)
B1: binds.
